Assay results as given in the supplement of paper PMC9876800.

Tested on: peptide library, one residue held at a place counted from the S/T acceptor
Assay: relative phosphorylation of the sub-library (ratio to the mean residue at this position); higher = residue favoured
Conditions: human
Procedure, shortened: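 Human or orthologue kinase constructs, purified and recombinant, were incubated under kinase-specific conditions in 384-well plates with biotinylated degenerate peptide sub-libraries. Each sub-library fixed one residue at one position around a central Ser/Thr. Incubations lasted 90 min with peptides at 50 μM and 50 μM ATP spiked with γ-32P-ATP, after which spots on streptavidin membranes were phosphorimaged and quantified by densitometry. Relative sub-library phosphorylation is a ratio to the mean residue at that position.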

Sequence of TLK1, construct: Full length (Q9UKI8 whole entry, looked up): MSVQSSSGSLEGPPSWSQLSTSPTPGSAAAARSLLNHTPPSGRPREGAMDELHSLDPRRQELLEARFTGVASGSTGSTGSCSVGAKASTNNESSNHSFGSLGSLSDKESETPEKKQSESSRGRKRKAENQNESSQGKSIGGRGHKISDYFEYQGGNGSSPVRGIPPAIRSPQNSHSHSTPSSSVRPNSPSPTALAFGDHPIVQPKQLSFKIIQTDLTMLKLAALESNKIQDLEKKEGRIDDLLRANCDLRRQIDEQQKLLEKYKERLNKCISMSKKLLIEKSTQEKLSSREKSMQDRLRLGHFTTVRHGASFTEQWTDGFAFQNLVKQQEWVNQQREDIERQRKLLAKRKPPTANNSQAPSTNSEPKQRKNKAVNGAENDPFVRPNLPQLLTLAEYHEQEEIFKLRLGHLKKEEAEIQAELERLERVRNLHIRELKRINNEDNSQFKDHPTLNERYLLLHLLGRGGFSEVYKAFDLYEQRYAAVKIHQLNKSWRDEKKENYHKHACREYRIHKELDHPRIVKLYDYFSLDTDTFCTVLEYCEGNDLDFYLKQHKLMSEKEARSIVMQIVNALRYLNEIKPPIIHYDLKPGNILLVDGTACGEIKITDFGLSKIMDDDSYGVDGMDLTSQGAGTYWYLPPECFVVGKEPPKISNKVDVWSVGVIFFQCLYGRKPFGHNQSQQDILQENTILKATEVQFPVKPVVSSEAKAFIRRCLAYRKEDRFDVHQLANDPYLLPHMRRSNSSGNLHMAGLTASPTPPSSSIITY
Sequence of RIPK2, construct: aa2-317 (O43353 2-317, looked up): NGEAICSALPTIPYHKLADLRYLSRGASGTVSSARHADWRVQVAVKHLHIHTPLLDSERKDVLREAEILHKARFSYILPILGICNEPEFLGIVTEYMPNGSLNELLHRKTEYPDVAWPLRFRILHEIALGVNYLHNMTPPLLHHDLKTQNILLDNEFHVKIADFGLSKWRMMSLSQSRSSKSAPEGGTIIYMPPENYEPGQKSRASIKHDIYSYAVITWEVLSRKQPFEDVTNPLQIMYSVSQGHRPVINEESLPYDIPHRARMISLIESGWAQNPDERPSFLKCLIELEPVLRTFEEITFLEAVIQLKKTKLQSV
Sequence of SBK1, construct: Full length (Q52WX2 whole entry, looked up): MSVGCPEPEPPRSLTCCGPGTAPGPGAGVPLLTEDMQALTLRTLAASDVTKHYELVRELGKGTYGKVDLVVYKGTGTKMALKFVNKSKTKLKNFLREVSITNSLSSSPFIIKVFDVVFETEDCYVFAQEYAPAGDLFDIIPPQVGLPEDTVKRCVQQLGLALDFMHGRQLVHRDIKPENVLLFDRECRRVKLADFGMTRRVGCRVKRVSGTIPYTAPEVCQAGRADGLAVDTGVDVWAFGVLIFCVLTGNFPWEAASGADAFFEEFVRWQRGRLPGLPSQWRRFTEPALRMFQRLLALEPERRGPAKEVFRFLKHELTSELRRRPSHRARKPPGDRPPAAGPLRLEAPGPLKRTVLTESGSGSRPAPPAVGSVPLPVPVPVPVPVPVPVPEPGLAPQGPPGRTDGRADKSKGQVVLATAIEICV
Sequence of MARK3, construct: Full length (P27448 whole entry, looked up): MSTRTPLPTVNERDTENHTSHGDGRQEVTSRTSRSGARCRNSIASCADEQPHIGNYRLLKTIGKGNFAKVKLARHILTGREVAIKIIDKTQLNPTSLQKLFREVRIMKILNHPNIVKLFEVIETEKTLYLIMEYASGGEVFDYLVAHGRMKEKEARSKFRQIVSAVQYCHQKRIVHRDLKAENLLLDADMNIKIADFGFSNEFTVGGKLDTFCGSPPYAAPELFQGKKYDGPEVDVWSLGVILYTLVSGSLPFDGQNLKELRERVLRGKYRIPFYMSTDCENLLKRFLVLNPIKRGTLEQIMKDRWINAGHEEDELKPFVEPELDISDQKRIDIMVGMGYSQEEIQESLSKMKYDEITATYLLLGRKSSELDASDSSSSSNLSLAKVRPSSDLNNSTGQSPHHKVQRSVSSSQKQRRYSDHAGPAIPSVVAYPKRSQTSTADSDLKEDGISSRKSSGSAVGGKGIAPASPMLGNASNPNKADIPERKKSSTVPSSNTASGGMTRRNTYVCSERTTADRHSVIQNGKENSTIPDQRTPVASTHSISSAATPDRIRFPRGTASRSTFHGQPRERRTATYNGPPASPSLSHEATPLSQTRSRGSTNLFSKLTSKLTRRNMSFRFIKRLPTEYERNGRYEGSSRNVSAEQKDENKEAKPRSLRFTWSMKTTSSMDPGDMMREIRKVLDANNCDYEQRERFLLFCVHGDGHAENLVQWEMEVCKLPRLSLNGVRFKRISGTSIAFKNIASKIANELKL

SBK1, construct: Full length (from UniProt Q52WX2)
relative phosphorylation
Conditions	at +1	at +2	at +3	at +4	at -1	at -2	at -3	at -4	at -5
A fixed	0.96	0.91	0.834	0.989	0.983	1.24	0.407	1.08	0.746
D fixed	0.948	1.5	1.36	1.18	1.06	0.195	0.0944	0.269	0.195
E fixed	0.863	1.29	1.41	1.01	0.51	0.239	0.113	0.58	0.186
F fixed	0.737	1	0.925	0.851	0.808	0.782	0.161	0.922	2.33
G fixed	1.32	1.01	1.18	1.25	1.22	0.42	0.151	0.634	0.383
H fixed	0.958	1.36	1.11	1.14	1.38	1.02	0.37	1.29	0.5
I fixed	0.817	0.677	0.747	0.787	0.251	0.861	0.133	0.753	1.97
K fixed	0.485	0.494	0.622	0.828	0.982	1.71	1.76	1.99	0.506
L fixed	0.93	0.881	0.812	0.905	0.862	0.957	0.166	0.656	1.83
M fixed	0.852	0.849	0.793	0.983	1.15	1.75	0.184	0.998	1.09
N fixed	1.35	1.18	1.07	1.18	1.94	0.609	0.187	0.49	0.255
P fixed	2.53	1.08	1.64	1.69	1.74	0.27	0.188	0.275	1.15
Q fixed	1.12	1.17	1.04	0.994	1.07	1.21	0.581	1.18	0.597
R fixed	0.531	0.682	0.619	0.709	0.828	2.71	12	2.72	1.07
V fixed	0.953	0.693	0.77	0.699	0.401	1.27	0.153	0.95	1.22
W fixed	0.834	1.05	1.09	0.958	0.658	0.792	0.198	0.926	2.21
Y fixed	0.816	1.16	0.979	0.858	1.16	0.961	0.178	1.28	0.746
pThr fixed	0.598	1.1	1.02	1.4	0.203	0.181	0.105	0.261	0.193
pTyr fixed	0.717	1.35	1.36	1.6	0.745	0.215	0.0961	0.24	0.374

MARK3, construct: Full length (from UniProt P27448)
relative phosphorylation
Conditions	at +1	at +2	at +3	at +4	at -1	at -2	at -3	at -4	at -5
A fixed	0.634	0.761	0.599	0.335	1.09	2.23	0.806	1.19	1.16
D fixed	0.414	0.68	2.56	0.456	0.61	0.317	0.412	0.765	0.758
E fixed	0.82	0.902	0.95	0.319	0.605	0.263	0.458	0.703	0.72
F fixed	0.651	0.746	0.792	0.619	0.499	1.29	0.758	0.987	1.12
G fixed	0.542	0.47	0.559	0.385	2.52	1.37	0.687	1.32	1.03
H fixed	0.76	0.879	1.56	0.489	0.708	1.21	1.41	1.19	0.86
I fixed	1.14	0.863	0.486	2.82	0.441	0.444	0.497	0.565	0.817
K fixed	0.932	0.651	0.731	0.487	1.92	0.995	2.2	1.71	1.4
L fixed	1.25	1.16	0.782	5.82	0.654	0.392	0.6	0.642	1.49
M fixed	2.38	0.994	0.708	1.22	0.75	0.571	0.772	0.833	1.06
N fixed	1.26	0.998	3.05	0.526	1.06	0.583	0.682	0.916	0.627
P fixed	0.337	0.826	0.2	0.348	1.37	0.546	0.925	1.13	0.964
Q fixed	1.62	0.955	0.929	0.473	1.19	0.488	0.736	0.808	0.722
R fixed	1.45	0.708	0.706	0.349	1.66	0.969	3.51	1.52	1.45
V fixed	1.23	0.898	0.488	1.33	0.707	0.628	0.524	0.673	0.824
W fixed	0.75	3.62	0.927	0.557	0.585	3.05	1.19	1.19	1.08
Y fixed	0.831	0.888	0.969	0.461	0.633	1.65	0.83	0.856	0.915
pThr fixed	1.49	1.34	0.404	0.369	0.348	0.44	0.553	0.726	0.573
pTyr fixed	0.705	0.679	0.944	0.328	0.841	0.64	0.855	0.686	0.735

TLK1, construct: Full length (from UniProt Q9UKI8)
relative phosphorylation
Conditions	at +1	at +2	at +3	at +4	at -1	at -2	at -3	at -4	at -5
A fixed	0.502	0.943	1.34	0.901	1.02	1.28	1.23	0.986	0.846
D fixed	0.279	1.17	0.745	0.602	2.36	3.12	2.28	1.26	0.993
E fixed	0.353	0.499	0.939	0.52	1.98	3.77	1.44	1.01	0.812
F fixed	0.586	1.4	1.32	1.77	0.517	0.384	0.887	1.51	1.46
G fixed	0.296	0.832	1.13	0.978	0.518	0.875	0.741	0.765	0.693
H fixed	0.917	1.63	1.06	0.957	1.08	0.843	1.14	1.12	0.909
I fixed	1.06	0.658	0.707	0.968	0.717	0.384	0.688	1.24	1.06
K fixed	0.848	0.636	0.646	0.891	1.02	0.512	0.856	0.757	0.952
L fixed	1.49	1.02	0.72	1.02	0.887	0.371	0.679	0.984	0.936
M fixed	2.43	1.6	0.993	0.964	0.751	0.588	0.907	0.896	0.826
N fixed	1.66	0.582	0.636	0.674	1.44	1.35	1.09	0.598	0.609
P fixed	0.217	0.821	1.29	1.38	0.364	0.484	0.856	0.554	0.897
Q fixed	2.14	0.964	0.808	0.722	0.808	1.11	0.775	0.871	0.697
R fixed	1.98	0.664	0.848	0.815	1.27	0.504	1.01	0.795	1.32
V fixed	0.996	0.569	0.809	0.81	0.789	0.497	0.659	1.21	1.16
W fixed	0.669	2.09	1.6	1.77	0.633	0.46	0.836	1.26	1.43
Y fixed	0.577	0.931	1.41	1.26	0.831	0.47	0.932	1.2	1.41
pThr fixed	0.472	0.804	0.79	0.807	0.694	1.76	1.85	1.18	0.601
pTyr fixed	0.518	1.39	1.48	1.08	1.61	2.32	1.4	1.55	1.68

RIPK2, construct: aa2-317 (from UniProt O43353)
relative phosphorylation
Conditions	at +1	at +2	at +3	at +4	at -1	at -2	at -3	at -4	at -5
A fixed	0.347	0.349	0.463	0.669	0.597	0.592	0.889	0.727	1.01
D fixed	0.267	0.348	0.308	0.731	1.09	0.599	0.412	0.738	0.674
E fixed	0.265	0.481	0.291	0.563	0.726	0.431	0.409	0.655	0.669
F fixed	2.32	1.73	3.03	1.2	1.31	1.12	1.17	1.15	1.44
G fixed	0.316	0.414	0.503	0.789	0.615	0.882	0.712	0.728	0.893
H fixed	0.643	1.41	0.734	1.11	1.29	1.54	0.905	1.02	0.985
I fixed	2.75	1.96	1.31	0.975	1.11	0.86	1.27	1.12	1.13
K fixed	0.367	1.29	0.628	1.18	0.766	0.734	0.983	0.739	0.874
L fixed	1.41	1.17	1.12	0.98	1.53	1.15	1.6	1.1	1.15
M fixed	1.4	1.12	1.41	0.967	1.74	1.18	1.2	1.23	1.17
N fixed	0.369	0.622	0.498	0.86	0.932	0.869	0.626	0.949	0.73
P fixed	0.166	0.299	0.277	0.879	0.394	0.365	0.537	0.624	0.781
Q fixed	0.496	0.788	0.425	0.847	0.784	0.82	0.631	0.679	0.727
R fixed	0.395	1.22	0.962	1.43	0.8	1.72	2.02	0.923	1.01
V fixed	1.58	1.14	0.845	0.638	0.75	0.64	0.797	1.02	0.917
W fixed	2.7	1.01	2.38	1.83	1.32	2.07	1.78	2.25	1.42
Y fixed	1.22	1.65	1.81	1.34	1.24	1.42	1.05	1.35	1.42
pThr fixed	0.578	0.83	0.416	0.82	0.77	0.688	0.707	1	0.808
pTyr fixed	0.309	0.39	0.353	0.5	1.35	0.425	0.568	0.617	0.54
